Laboratory results from patent publication US20210063414A1, “METHODS FOR PREVENTING AND/OR TREATING BONE LOSS CONDITIONS BY MODULATING IRISIN” (Dana-Farber Cancer Institute, Inc., priority 2018, published 2021).

Legend:
Assay in all cases: Crosslinking/co-immunoprecipitation/mass spectrometry (TMT quantitative proteomics) to identify irisin receptors
Assay type in all cases: binding
[1] = target: T1, MLO-Y4 cell surface proteins (Mus musculus, UniProt P04117); details: co-precipitated protein Fabp4 (FABP4_MOUSE)
T1 construct: endogenous in cells; host or cells: MLO-Y4
T1 sequence (P04117 1-132): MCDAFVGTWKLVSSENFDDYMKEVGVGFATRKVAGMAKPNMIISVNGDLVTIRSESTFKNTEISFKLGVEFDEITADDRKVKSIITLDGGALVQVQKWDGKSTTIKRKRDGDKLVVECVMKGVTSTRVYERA
Procedure, shortened: (§1)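 Relative protein abundance came from 6-plex TMT MS3 quantitation on an Orbitrap Fusion Lumos, after in-gel trypsin digestion of Coomassie-stained SDS-PAGE lanes. Input was a Ni-NTA pulldown (250 mM imidazole elution) of lysates from murine MLO-Y4 cells. These cells were treated on ice with His-tagged irisin or adipsin (10 nM, 20 min) in serum-free medium, then crosslinked with 1.5 mM DTSSP for 30 min.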

[2] = target: T2, MLO-Y4 cell surface proteins (Mus musculus, UniProt P60843); details: co-precipitated protein Eif4a1 (IF4A1_MOUSE)
T2 construct: endogenous in cells; host or cells: MLO-Y4
T2 sequence (P60843 whole entry): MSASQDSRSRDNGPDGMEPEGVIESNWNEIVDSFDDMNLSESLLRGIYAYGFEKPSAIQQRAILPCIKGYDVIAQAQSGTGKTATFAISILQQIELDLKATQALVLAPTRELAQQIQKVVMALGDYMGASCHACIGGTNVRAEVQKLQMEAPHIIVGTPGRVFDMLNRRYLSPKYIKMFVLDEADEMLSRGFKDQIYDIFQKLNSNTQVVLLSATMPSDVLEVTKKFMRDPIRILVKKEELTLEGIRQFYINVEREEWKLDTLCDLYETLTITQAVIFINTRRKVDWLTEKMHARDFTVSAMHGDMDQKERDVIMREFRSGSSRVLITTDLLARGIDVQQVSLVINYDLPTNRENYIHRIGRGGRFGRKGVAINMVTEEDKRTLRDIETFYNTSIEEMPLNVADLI
Procedure, shortened: as §1

[3] = target: T3, MLO-Y4 cell surface proteins (Mus musculus, UniProt Q9D3P1); details: co-precipitated protein Tchhl1 (TCHL1_MOUSE)
T3 construct: endogenous in cells; host or cells: MLO-Y4
T3 sequence (Q9D3P1 1-638): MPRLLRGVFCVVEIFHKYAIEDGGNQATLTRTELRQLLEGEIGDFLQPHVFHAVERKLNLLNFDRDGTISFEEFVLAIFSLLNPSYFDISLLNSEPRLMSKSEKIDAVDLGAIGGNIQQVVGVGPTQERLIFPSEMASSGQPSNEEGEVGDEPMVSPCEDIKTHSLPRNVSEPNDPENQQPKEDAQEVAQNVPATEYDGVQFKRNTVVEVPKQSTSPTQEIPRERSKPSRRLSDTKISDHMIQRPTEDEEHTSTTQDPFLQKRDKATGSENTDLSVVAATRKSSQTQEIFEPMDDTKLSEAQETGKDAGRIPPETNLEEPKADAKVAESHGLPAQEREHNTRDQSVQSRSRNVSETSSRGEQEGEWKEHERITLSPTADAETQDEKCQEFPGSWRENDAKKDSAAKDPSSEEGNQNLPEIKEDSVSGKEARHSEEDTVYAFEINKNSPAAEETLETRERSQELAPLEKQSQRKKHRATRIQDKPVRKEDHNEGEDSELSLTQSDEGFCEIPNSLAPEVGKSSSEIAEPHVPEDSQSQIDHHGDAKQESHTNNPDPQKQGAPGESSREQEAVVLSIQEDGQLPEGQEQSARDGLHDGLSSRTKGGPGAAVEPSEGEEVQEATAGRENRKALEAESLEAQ
Procedure, shortened: as §1

B1: irisin: secreted cleaved form of FNDC5; recombinant human/mouse irisin with C-terminal his tag produced in HEK293 cells (protein)
chain: DSPSAPVNVTVRHLKANSAVVSWDVLEDEVVIGFAISQQKKDVRMLRFIQEVNTTTRSCALWDLEEDTEYIVHVQAISIQGQSPASEPVLFKTPREAEKMASKNKDEVTMKE
modifications: left off: small tags and cut ends
notes: secreted cleaved form of FNDC5; recombinant human/mouse irisin with C-terminal his tag produced in HEK293 cells
[1]
  TMT signal-to-noise ratio: 40.1352
  irisin/adipsin TMT signal-to-noise ratio: 0.054
[2]
  TMT signal-to-noise ratio: 17.0483
  irisin/adipsin TMT signal-to-noise ratio: 0.125
[3]
  TMT signal-to-noise ratio: 23.5307
  irisin/adipsin TMT signal-to-noise ratio: 0.013
